Data on eight molecules can be found in US20200317802A1.

For assay [1], the target named is bovine recombinant ADAMTS5 (bovine). As to the kind of experiment: SPR off-rate, Biacore T100, ADAMTS5 immobilised, experiment 3. Background: In SPR one partner is held on a chip, and binding of the other changes the refractive index at the surface.
For assay [2], the target named is T1, human ADAMTS4 (R&D Systems cat #4307-AD) (human) (UniProt O75173).
T1 sequence (looked up): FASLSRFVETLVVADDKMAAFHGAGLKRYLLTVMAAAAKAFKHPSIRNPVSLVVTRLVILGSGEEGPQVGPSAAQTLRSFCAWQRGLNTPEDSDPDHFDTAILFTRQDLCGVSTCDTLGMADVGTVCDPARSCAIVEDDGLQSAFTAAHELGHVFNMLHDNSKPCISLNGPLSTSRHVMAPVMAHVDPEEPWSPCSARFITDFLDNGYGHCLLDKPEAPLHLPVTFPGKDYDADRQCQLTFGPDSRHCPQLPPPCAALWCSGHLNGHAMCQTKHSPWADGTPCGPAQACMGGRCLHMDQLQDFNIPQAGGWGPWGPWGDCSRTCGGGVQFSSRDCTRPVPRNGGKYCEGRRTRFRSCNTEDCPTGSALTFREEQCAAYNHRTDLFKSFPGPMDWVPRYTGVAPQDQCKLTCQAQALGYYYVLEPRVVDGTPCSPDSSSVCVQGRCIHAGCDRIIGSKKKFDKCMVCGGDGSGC

For assay [3], the target named is recombinant human ADAMTS5 (R&D Systems cat #2198-AD) (human) (UniProt Q9UNA0). As to the kind of experiment: cell-based or functional assay.
In assay [4] the target is activated human MMP-1 (human) (UniProt P03956).
Sequence of activated human MMP-1 (human) (P03956 100-469 limits assumed): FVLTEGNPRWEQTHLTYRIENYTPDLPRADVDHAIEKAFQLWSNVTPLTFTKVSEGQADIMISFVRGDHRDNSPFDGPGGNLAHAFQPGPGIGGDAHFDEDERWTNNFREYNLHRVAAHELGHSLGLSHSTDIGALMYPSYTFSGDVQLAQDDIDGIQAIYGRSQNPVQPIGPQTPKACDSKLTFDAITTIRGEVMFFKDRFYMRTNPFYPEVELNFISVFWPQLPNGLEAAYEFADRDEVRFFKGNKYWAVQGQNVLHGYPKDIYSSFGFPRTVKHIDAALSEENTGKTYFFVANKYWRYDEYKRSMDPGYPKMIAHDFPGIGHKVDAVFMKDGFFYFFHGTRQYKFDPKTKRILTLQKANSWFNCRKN

Sequence of recombinant human ADAMTS5 (R&D Systems cat #2198-AD) (human) (Q9UNA0 262-622 limits assumed): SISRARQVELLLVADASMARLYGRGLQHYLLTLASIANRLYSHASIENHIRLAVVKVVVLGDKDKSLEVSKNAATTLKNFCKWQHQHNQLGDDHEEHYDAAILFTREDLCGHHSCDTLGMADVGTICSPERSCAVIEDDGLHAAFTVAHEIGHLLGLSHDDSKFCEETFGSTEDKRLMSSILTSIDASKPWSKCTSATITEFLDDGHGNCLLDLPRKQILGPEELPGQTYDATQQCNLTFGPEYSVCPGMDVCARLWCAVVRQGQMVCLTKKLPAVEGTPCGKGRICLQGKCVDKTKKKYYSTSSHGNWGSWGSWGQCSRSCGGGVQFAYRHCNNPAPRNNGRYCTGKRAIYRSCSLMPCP

B1: Nanobody 3D01 (VHH)
VHH: EVQLVESGGGLVQAGGSLRLSCAPSGFTFSPYYMGWFRQAPGKERDFVAAISRSRGTTYYLDSTEGRFTISRDNANDTVYLQMNSLNPEDTAVYYCAAGRSPGDPSRTYLYDYWGQGTLVTVSS
As to B1, in assay [1], the koff is 0.00035 s⁻¹.

B2: Nanobody 11B06 (VHH)
VHH: EVQLVESGGGLVQAGGSLRLSCAASGLTFRRNAMGWFRQAPGKERELLAGINWSGGTTYYVDSVKGRFTISRDNAKNTVDLQMISPKPEDTAVYYCAADGDIGTLVNDENPRYWGQGTLVTVSS
Regarding B2, the koff in assay [1] amounted to 0.00024 s⁻¹.

B3: Nanobody 2D07 (VHH)
VHH: EVQLVESGGGLVQAGGSLRLSCSFSGPGRTFARYAMGWFRQAPGKNRDFITGISGSGDSTYYVYPMKDRFTISRDNAKNMVYLQMNALKPEDTAVYYCAADREINRIANDKELDFWGQGTLVTVSS
With B3, the koff in assay [1] is 0.00062 s⁻¹.

B4: Nanobody 9D03 (VHH)
VHH: EVQLVESGGGLVQSGGSLRLSCAASGSAVSVNAMAWYRQAPGKQRDFVAGISRSAGRTYYTDSVKDRFTIARDSAKNTVYLQMNRLKPEDTAVYYCAADLDPNRIFSRDEAAYWGQGTLVTVSS
Turning to B4, the koff in assay [1] was determined as 0.00099 s⁻¹.

B5: Nanobody 2F03 (VHH)
VHH: EVQLVESGGGLVQAGGSLRLSCAASGRTVSSYAMGWFRLAPGKEREFVAGISRSAERTYYVDSLKGRFTISRDSAKNTVYLHMNRLKPEDTAVYYCAADLDPNRIFSREEYAYWGQGTLVTVSS
As to B5, the koff in assay [1] worked out at 4.3e-05 s⁻¹.

B6: Nanobody 2A12 (VHH)
VHH: EVQLVESGGGLVQAGGSLRLSCAASGRTFSSYAMGWFRQAPGKERDFVAGISRSAGRTYYVDSVKGRFTISRDSAKNTVYLQMNRLKPEDTAVYYCAADLDPNRIFSRDEAAYWGQGTLVTVSS
Turning to B6, the koff in assay [1] is 0.00017 s⁻¹.

B7: Nanobody 3B02 (VHH)
VHH: EVQLVESGGGFVQAGGSLRLSCVASRRTISSGTMGWFRQAPGKEREFVAAIRWSSGMPYYLDSVMDRFTISRDNAKNTVSLQMNSLQPEDTAVYYCAADRSAFRDPSFDVNYEYWGRGTLVTVSS
B7: the koff in assay [1] was 0.0011 s⁻¹.

B8: rhTIMP3 (protein, human, UniProt P35625 24-211, looked up)
chain: CTCSPSHPQDAFCNSDIVIRAKVVGKKLVKEGPFGTLVYTIKQMKMYRGFTKMPHVQYIHTEASESLCGLKLEVNKYQYLLTGRVYDGKMYTGLCNFVERWDQLTLSQRKGLNYRYHLGCNCKIKSCYYLPCFVTSKNECLWTDMLSNFGYPGYQSKHYACIRQKGGYCSWYRGWAPPDKSIINATDP
For the molecule B8, the IC50 (read off the curve) (human ADAMTS-4 AlphaLISA) [right panel] in assay [2] came to 2 nM. Also, in assay [3], the Human AlphaLISA % inhibition turned out to be 100% and the Human AlphaLISA IC50 is 0.61 nM. Also, the IC50 (read off the curve) (human MMP-1 activity, FRET peptide substrate) in assay [4] was 5 nM.

The term koff denotes the rate constant with which the complex falls apart.
